Drawing on article PMC10246534 (Nature Communications, 2023), this text covers Kd for two molecules.

The target in this assay is Delta RBD WT (SARS-CoV-2, Delta variant (B.1.617.2), L452R). Nature of the assay: SPR; Biacore T200; […]; HBS-EP, 25 °C; 1:1 binding model. The conditions noted are these: both partners purified.

B1: imdevimab (antibody, V domains shown)
VH: QVQLVESGGGVVQPGRSLRLSCAASGFTFSNYAMYWVRQAPGKGLEWVAVISYDGSNKYYADSVKGRFTISRDNSKNTLYLQMNSLRTEDTAVYYCASGSDYGDYLLVYWGQGTLVTVSS
VL: QSALTQPASVSGSPGQSITISCTGTSSDVGGYNYVSWYQQHPGKAPKLMIYDVSKRPSGVSNRFSGSKSGNTASLTISGLQSEDEADYYCNSLTSISTWVFGGGTKLTVL
notes: source: Regeneron
Turning to B1, the Kd – broadly, a measure of binding affinity in units of concentration – is 9.4 nM.

B2: casirivimab (antibody, V domains shown)
VH: QVQLVESGGGLVKPGGSLRLSCAASGFTFSDYYMSWIRQAPGKGLEWVSYITYSGSTIYYADSVKGRFTISRDNAKSSLYLQMNSLRAEDTAVYYCARDRGTTMVPFDYWGQGTLVTVSS
VL: DIQMTQSPSSLSASVGDRVTITCQASQDITNYLNWYQQKPGKAPKLLIYAASNLETGVPSRFSGSGSGTDFTFTISGLQPEDIATYYCQQYDNLPLTFGGGTKVEIK
notes: source: Regeneron
Regarding B2, binding was put at a Kd of 0.36 nM. Against the preceding molecule, the Kd is about 26-fold lower.
